Laboratory results as given in patent US11156615B2 (priority 2015, dated 2021).

What was measured:
[1] = Glucose-dependent fluorescence emission intensity spectra of conjugates (Nanodrop3300); format: biochemical
Excerpt: Semi-synthetic FRSs were engineered by site-specifically attaching thiol-reactive, environmentally sensitive fluorophores that respond to ligand-mediated conformational changes. Identification of FRS candidates that are useful for sensing applications comprises three steps: • 1. Cysteine scan. Mutant glucose-binding proteins containing single cysteines are constructed for site-specific attachment of thiol-reactive fluorophores. […] Candidate positions fall into three classes: endosteric, replacing a residue that contacts the ligand directly; peristeric, located at the rim of the binding site; allosteric (Marvin et al. 1997 Proc Natl Acad Sci USA, 94, 4366-71; Marvin 1998 J Am Chem Soc, 120, 7-11), located outside the binding site at sites that undergo local structural changes in concert with the hinge-bending motion. • 2. Fluorophore screening. Thiol-reactive, environmentally sensitive fluorophores are attached to each cysteine mutant prepared in step 1. • 3. Evaluation of the glucose-mediated change of all the fluorescent conjugates prepared in step 2. Responses to ligand binding in which there is both a change in fluorescence emission intensity and spectral shape was essential for chemometric applications, because such changes enable ratiometric measurements. Changes in spectral shape typically are accompanied by a shift in the wavelength of the emission intensity maxima. Three classes of fluorescent responses are possible: • i. No response. • ii. Monochromatic response (emission intensity increases or decreases without a change in spectral shape) • iii.

[2] = Thermostability: mid-point thermal denaturation temperature (Tm) from temperature-dependent fluorescence (Roche LightCycler); format: physicochemical; conditions: Acrylodan conjugate; apo-protein
Excerpt: Protein (un)folding is monitored by binding of SYPRO to the unfolded state as a function of temperature. Fluorescence intensity increases upon binding of SYPRO by the unfolded state.
Panels A-C: ttGBP182C.2.0-Imm0; Panels D-F: ttGBP182C.2.0-Imm1 (see FIG. 13). (A) Solution (Tm=347.6K). (B) Immobilized on Nickel-nitriloacetic acid (Ni-NTA) beads (Tm=346.7K). (C) Reconstituted, desiccated Ni-NTA beads (Tm=347.6K). (D) Fluorescence response of ttGGBP5.2 Imm1 immobilized on NHS-functionalized agarose beads. Data was collected on a Roche LightCycler real-time PCS instrument, recording emission intensities at 488 nm and 510 nm as a function of temperature in a 384-well microtiter plate. […] Temperature melts of twelve different wells. Apo protein thermostability as reported by the denaturation mid-point temperature is 349 K, similar to the protein free in solution. […] (F) Representative Langmuir ligand-binding curve extracted from the three-dimensional data.
Temperatures were advanced in 1K steps. […] Under these experimental photobleaching was not observed.

[3] = Glucose binding: isothermal fluorescence titrations, ratiometric (appKd) and monochromatic (trueKd) fits; conditions: Acrylodan conjugate, room temperature
Excerpt: 2 For a single glucose-binding site, the fractional saturation is given by
[formula] where ^apoIλ2 and ^satIλ2 are the emission intensities of the monochromatic signal at wavelength λ2 of the ligand-free and ligand-bound protein, respectively.

[4] = Galactose binding: isothermal fluorescence titrations of conjugates; conditions: Acrylodan conjugate; for S, selectivity = trueKd(galactose)/trueKd(glucose): S > 1, selective for glucose; for Kd: read-out: Galactose trueKd, monochromatic titration curves, room temperature
[5] = read-out: Glucose appKd, dichromatic ratiometry
[6] = read-out: Glucose trueKd, monochromatic titration curves

Row | Molecule | direction of emission wavelength shift upon glucose binding ([1]; isochromic / hypsochromic / bathochromic) | Kd [3, 5] | Kd [3, 6] | S, selectivity = trueKd(galactose)/trueKd(glucose) [4] | Kd [4] | Type of fluorescence response to glucose ([1]; Acrylodan conjugate of ttGGBP or ecGGBP (Ec) cysteine mutant, Nanodrop3300) | apoTm [2]
1 | W183C (Ec) |  |  |  |  |  | r (b) (r (b), ratiometric (bathochromic shift)) | 
2 | ecGGBP W183C⋅Acrylodan: Acrylodan attached to W183C mutant of E. coli GGBP (SEQ ID NO: 32) | bathochromic |  |  |  |  |  | 
3 | ttGGBP182C.9: affinity-tuning mutant, 182C background, SEQ ID NO: 103 (protein, ttGGBP182C.9 (affinity-tuning mutant, 182C background (Table 6) with signal peptide replaced with M and GGSHHHHHH at C-terminus)) MKQLNIGVAIYKFDNTFMTGVRNAMTAEAQGKAKLNMVDSQNSQPTQNDQVDLFITKKMNALAINPVDRTAAGTIIDKAKQANIPVVFFNREPLPEDMKKWDKVYYVGAKAEQSGILQGQIMADYWKAHPEADKNHDGVMQYVMLMGQPGHQDAILRTQYSIQTVKDAGIKVQELAKDYANCDRVTAHDKMAAWLSSFGDKIEAVFANNDDMALGAIEALKSAGYFTGNKYIPVVGVDATAPGIQAIKDGTLLGTVLNDAKNQAKATFNIAYELAQGITPTKDNIGYDITDGKYVWIPYKKITKDNISDAEQGGSHHHHHH |  | 75.1 mM | 76.4 mM | 3.7 |  |  | 343 K
4 | ttGGBP182C.8: affinity-tuning mutant, 182C background, SEQ ID NO: 102 (protein, ttGGBP182C.8 (affinity-tuning mutant, 182C background (Table 6) with signal peptide replaced with M and GGSHHHHHH at C-terminus)) MKQLNIGVAIYKFDDTFMTGVRNAMTAEAQGKAKLNMVDSQNSQPTQNDQVDLFITKKMNALAINPVDRTAAGTIIDKAKQANIPVVFFNKEPLPEDMKKWDKVYYVGAKAEQSGILQGQIMADYWKAHPEADKNHDGVMQYVMLMGKPGHQDAILRTQYSIQTVKDAGIKVQELAKDYANCDRVTAHDKMAAWLSSFGDKIEAVFANNDDMALGAIEALKSAGYFTGNKYIPVVGVDATAPGIQAIKDGTLLGTVLNDAKNQAKATFNIAYELAQGITPTKDNIGYDITDGKYVWIPYKKITKDNISDAEQGGSHHHHHH |  | 28.7 mM | 44.2 mM | 5.8 |  |  | 346 K

Second part, led by results:

Row | direction of emission wavelength shift upon glucose binding ([1]; isochromic / hypsochromic / bathochromic) | Kd [3, 5] | Kd [3, 6] | S, selectivity = trueKd(galactose)/trueKd(glucose) [4] | Kd [4] | Molecule | Type of fluorescence response to glucose ([1]; Acrylodan conjugate of ttGGBP or ecGGBP (Ec) cysteine mutant, Nanodrop3300) | apoTm [2]
5 |  | 19.2 mM | 17.9 mM | 2.9 | 52.6 mM | ttGGBP182C.2.6: affinity-tuning mutant, 182C background, SEQ ID NO: 93 (protein, ttGGBP182C.2.6 (affinity-tuning mutant, 182C background (Table 6) with signal peptide replaced with M and GGSHHHHHH at C-terminus)) MKQLNIGVAIYKFDDTFMTGVRNAMTAEAQGKAKLNMVDSQNSQPTQNDQVDLFITKKMNALAINPVDRTAAGTIIDKAKQANIPVVFFNKEPLPEDMKKWDKVYYVGAKAEQSGILQGQIMADYWKAHPEADKNHDGVMQYVMLMGEPGNQDAILRTQYSIQTVKDAGIKVQELAKDYANCDRVTAHDKMAAWLSSFGDKIEAVFANNDDMALGAIEALKSAGYFTGNKYIPVVGVDATAPGIQAIKDGTLLGTVLNDAKNQAKATFNIAYELAQGITPTKDNIGYDITDGKYVWIPYKKITKDNISDAEQGGSHHHHHH |  | 347 K
6 |  |  | 0.9 mM |  | 3.1 mM | ttGGBP182C.3: affinity-tuning mutant, 182C background, SEQ ID NO: 97 (protein, ttGGBP182C.3 (affinity-tuning mutant, 182C background (Table 6) with signal peptide replaced with M and GGSHHHHHH at C-terminus)) MKQLNIGVAIYKFDDTFMTGVRNAMTAEAQGKAKLNMVDSQNSQPTQNDQVDLFITKKMNALAINPVDRTAAGTIIDKAKQANIPVVFFNKEPLPEDMKKWDKVYYVGAKAEQSGILQGQIMADYWKAHPEADKNHDGVMQYVMLMGQPGHQDAILRTQYSIQTVKDAGIKVQELAKDYANCDRVTAHDKMAAWLSSFGDKIEAVFANNDDMALGAIEALKSAGYFTGNKYIPVVGVDATAPGIQAIKDGTLLGTVLNDAKNQAKATFNIAYELAQGITPTKDNIGYDITDGKYVWIPYKKITKDNISDAEQGGSHHHHHH |  | 346 K
7 |  | 0.6 mM | 0.8 mM | 8.1 | 6.5 mM | ttGGBP182C.4: affinity-tuning mutant, 182C background, SEQ ID NO: 98 (protein, ttGGBP182C.4 (affinity-tuning mutant, 182C background (Table 6) with signal peptide replaced with M and GGSHHHHHH at C-terminus)) MKQLNIGVAIYKFDDTFMTGVRNAMTAEAQGKAKLNMVDSQNSQPTQNDQVDLFITKKMNALAINPVDRTAAGTIIDKAKQANIPVVFFNREPLPEDMKKWDKVYYVGAKAEQSGILQGQIMADYWKAHPEADKNHDGVMQYVMLMGEPGHQDAILRTQYSIQTVKDAGIKVQELAKDYANCDRVTAHDKMAAWLSSFGDKIEAVFANNDDMALGAIEALKSAGYFTGNKYIPVVGVDATAPGIQAIKDGTLLGTVLNDAKNQAKATFNIAYELAQGITPTKDNIGYDITDGKYVWIPYKKITKDNISDAEQGGSHHHHHH |  | 347 K
8 |  | 21.6 mM | 27.6 mM | 2.9 | 81 mM | ttGGBP182C.6: affinity-tuning mutant, 182C background, SEQ ID NO: 100 (protein, ttGGBP182C.6 (affinity-tuning mutant, 182C background (Table 6) with signal peptide replaced with M and GGSHHHHHH at C-terminus)) MKQLNIGVAIYKFDDNFMTGVRNAMTAEAQGKAKLNMVDSQNSQPTQNDQVDLFITKKMNALAINPVDRTAAGTIIDKAKQANIPVVFFNREPLPEDMKKWDKVYYVGAKAEQSGILQGQIMADYWKAHPEADKNHDGVMQYVMLMGQPGHQDAILRTQYSIQTVKDAGIKVQELAKDYANCDRVTAHDKMAAWLSSFGDKIEAVFANNDAMALGAIEALKSAGYFTGNKYIPVVGVDATAPGIQAIKDGTLLGTVLNDAKNQAKATFNIAYELAQGITPTKDNIGYDITDGKYVWIPYKKITKDNISDAEQGGSHHHHHH |  | 345 K
9 |  | 7.5 mM | 8.8 mM | 0.8 | 7.4 mM | ttGGBP182C.5: affinity-tuning mutant, 182C background, SEQ ID NO: 99 (protein, ttGGBP182C.5 (affinity-tuning mutant, 182C background (Table 6) with signal peptide replaced with M and GGSHHHHHH at C-terminus)) MKQLNIGVAIYKFDDTFMTGVRNAMTAEAQGKAKLNMVDSQNSQPTQNDQVDLFITKKMNALAINPVDPTAAGTIIDKAKQANIPVVFFNREPLPEDMKKWDKVYYVGAKAEQSGILQGQIMADYWKAHPEADKNHDGVMQYVMLMGQPGHPDAILRTQYSIQTVKDAGIKVQELAKDYANCDRVTAHDKMAAWLSSFGDKIEAVFANNDDMALGAIEALKSAGYFTGNKYIPVVGVDATAPGIQAIKDGTLLGTVLNDAKNQAKATFNIAYELAQGITPTKDNIGYDITDGKYVWIPYKKITKDNISDAEQGGSHHHHHH |  | 349 K
